This experiment deals with T1, Cyp33 RRM domain (1–83) (UniProt Q9UNP9 1-83).
T1 sequence (looked up): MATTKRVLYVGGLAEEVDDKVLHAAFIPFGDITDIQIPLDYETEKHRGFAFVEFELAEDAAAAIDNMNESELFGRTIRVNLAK
As to the kind of experiment: NMR titration.

The values below come from PMC3925188 (Biochimica et biophysica acta, 2013).

B1: KMT2A PHD3 finger (1565–1627) (domain or fragment, UniProt Q03164 1565-1627, looked up)
chain: KGNFCPLCDKCYDDDDYESKMMQCGKCDRWVHSKCENLSDEMYEILSNLPESVAYTCVNCTER
Consider B1, for which the binding result is given as “binds”.
